From US20250215089A1 (HARBOUR BIOMED SHANGHAI, published 2025)
Numbering of substitutions follows the chain as printed. In names and notes the source's numbering stands.

B1: PR007276 (bispecific antibody, human IgG1, kappa)
heavy: QVQLVESGGGVVQPGMSLRLSCAASGFDFSSYGMYWVRQAPGKGQEWVASIRYTGTEKHYADSVKGRFTISRDNSKNTLYLEMNSLRVEDTAVYYCAKNRALFGVIPDDSDIRGQGTMVTVSSGGGGSQVQLVQSGAEVKKPGASVKVSCKASGYTFAGYYMYWVRQAPGQGLEWMGWINPDSGAPTYAQKFQGRVTMTRDTSISTAYMELSRLRSDDTAVYYCAREKIYYGSGNYYPSFDYWGQGTLVTVSSASTKGPSVFPLAPSSKSTSGGTAALGCLVKDYFPEPVTVSWNSGALTSGVHTFPAVLQSSGLYSLSSVVTVPSSSLGTQTYICNVNHKPSNTKVDKKVEPKSCDKTHTCPPCPAPEAAGAPSVFLFPPKPKDTLMISRTPEVTCVVVDVSHEDPEVKFNWYVDGVEVHNAKTKPREEQYNSTYRVVSVLTVLHQDWLNGKEYKCKVSNKALPAPIEKTISKAKGQPREPQVYTLPPSREEMTKNQVSLTCLVKGFYPSDIAVEWESNGQPENNYKTTPPVLDSDGSFFLYSKLTVDKSRWQQGNVFSCSVMHEALHNHYTQKSLSLSPGK
light: DIQLTQSPSFLSASVGDRVTITCRASQGISSYLAWYQQKPGKAPKLLIYAASTLQSGVPSRFSGSGSGTEFTLTISSLQPEDFATYYCQQLASYPWTFGQGTKVEIKRTVAAPSVFIFPPSDEQLKSGTASVVCLLNNFYPREAKVQWKVDNALQSGNSQESVTEQDSKDSTYSLSSTLTLSKADYEKHKVYACEVTHQGLSSPVTKSFNRGEC
notes: VH of PR006248 (PD-L1) - GS_5 - heavy chain of CD40 IgG PR006495; human IgG1 L234A/L235A/G237A; also called PD-L1×CD40
B2: PR007617 (bispecific antibody, human IgG1, kappa)
heavy: QVQLVESGGGVVQPGMSLRLSCAASGFDFSSYGMYWVRQAPGKGQEWVASIRYTGTEKHYADSVKGRFTISRDNSKNTLYLEMNSLRVEDTAVYYCAKNRAIFGVIPDDSDIRGQGTMVTVSSGGSQVQLVQSGAEVKKPGASVKVSCKASGYTFAGYYMYWVRQAPGQGLEWMGWINPDSGAPTYAQKFQGRVTMTRDTSISTAYMELSRLRSDDTAVYYCAREKIYYGSGNYYPSFDYWGQGTLVTVSSASTKGPSVFPLAPSSKSTSGGTAALGCLVKDYFPEPVTVSWNSGALTSGVHTFPAVLQSSGLYSLSSVVTVPSSSLGTQTYICNVNHKPSNTKVDKKVEPKSCDKTHTCPPCPAPEAAGAPSVFLFPPKPKDTLMISRTPEVTCVVVDVSHEDPEVKFNWYVDGVEVHNAKTKPREEQYNSTYRVVSVLTVLHQDWLNGKEYKCKVSNKALPAPIEKTISKAKGQPREPQVYTLPPSREEMTKNQVSLTCLVKGFYPSDIAVEWESNGQPENNYKTTPPVLDSDGSFFLYSKLTVDKSRWQQGNVFSCSVMHEALHNHYTQKSLSLSPGK
light: B1 light
notes: VH of PR006246 (PD-L1) - GS_3 - heavy chain of CD40 IgG PR006495; human IgG1 L234A/L235A/G237A; also called PD-L1×CD40
B3: PR006919 (bispecific antibody, human IgG1, kappa)
heavy: B1 heavy with L102I
light: B1 light with A92F
notes: VH of PR006246 (PD-L1) - GS_5 - heavy chain of CD40 IgG PR006496; human IgG1 L234A/L235A/G237A; also called PD-L1×CD40
B4: PR007620 (bispecific antibody, human IgG1, kappa)
heavy: B2 heavy with I102L
light: B1 light with A92V
notes: VH of PR006248 (PD-L1) - GS_3 - heavy chain of CD40 IgG PR006504; human IgG1 L234A/L235A/G237A; also called PD-L1×CD40
B5: PR007070 (bispecific antibody, human IgG1, kappa)
heavy: B1 heavy with D28T
light: B1 light
notes: VH of PR005878 (PD-L1) - GS_5 - heavy chain of CD40 IgG PR006495; human IgG1 L234A/L235A/G237A; also called PD-L1×CD40
B6: PR007616 (bispecific antibody, human IgG1, kappa)
heavy: B1 heavy
light: B1 light with A92Y
notes: VH of PR006248 (PD-L1) - GS_5 - heavy chain of CD40 IgG PR006497; human IgG1 L234A/L235A/G237A; also called PD-L1×CD40
B7: PR007151 (bispecific antibody, human IgG1, kappa)
heavy: B1 heavy with D28T
light: B1 light with A92V
notes: VH of PR005878 (PD-L1) - GS_5 - heavy chain of CD40 IgG PR006504; human IgG1 L234A/L235A/G237A; also called PD-L1×CD40
B8: PR007618 (bispecific antibody, human IgG1, kappa)
heavy: B2 heavy with I102L
light: B1 light
notes: VH of PR006248 (PD-L1) - GS_3 - heavy chain of CD40 IgG PR006495; human IgG1 L234A/L235A/G237A; also called PD-L1×CD40

target: T1, human CD40 (human, UniProt P25942 21-277); test: FACS, CHO-K1/hCD40 cells
T1 construct: whole, on cells; also called hCD40; TNFRSF5
Description: (§1) The cells were incubated at 4° C. for 1 hours in the dark. After the incubation, the cells were rinsed twice by adding pre-chilled PBS at 100 μL/well, and centrifuged at 500 g at 4° C. for 5 minutes, and the supernatant was discarded. Then, a fluorescent secondary antibody (goat anti-human IgG (H+L) secondary antibody, Alexa Fluor® 488 conjugate, Invitrogen, #A11013, 1:1000 dilution) was added at 100 μL/well, and the cells were incubated at 4° C. for 30 minutes in the dark. The cells were washed twice with pre-chilled PBS at 200 μL/well, and centrifuged at 500 g at 4° C. for 5 minutes, and the supernatant was discarded. Finally, the cells were resuspended in pre-chilled PBS at 200 μL/well. The fluorescence signal values were read using a BD FACS CANTOII flow cytometer or ACEA NovoCyte flow cytometer, and the data were processed and analyzed using FlowJo v10 software (FlowJo, LLC).

T1 sequence (P25942 21-277): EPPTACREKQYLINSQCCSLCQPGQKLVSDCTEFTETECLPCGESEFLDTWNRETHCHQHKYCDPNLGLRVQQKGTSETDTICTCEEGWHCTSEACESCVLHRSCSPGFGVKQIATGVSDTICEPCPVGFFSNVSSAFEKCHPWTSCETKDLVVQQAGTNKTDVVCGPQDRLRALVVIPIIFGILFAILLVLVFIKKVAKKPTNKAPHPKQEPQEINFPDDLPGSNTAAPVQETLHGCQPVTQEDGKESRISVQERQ

EC50 [nM]	Maximum MFI [MFI]	Binder
2.35	14300	B1
1.96	16800	B2
2.53	18900	B3
2.2	15300	B4
2.67	15400	B5
1.99	19200	B6
2.36	16000	B7
2.22	16800	B8

target: T2, human PD-L1 (human, UniProt Q9NZQ7 19-290); test: FACS, CHO-K1/hPD-L1 cells
T2 construct: whole, on cells; also called hPD-L1; CD274
Description: (§2) Specifically, the cells expressing PD-L1 were digested and resuspended in PBS buffer containing 2% BSA. The cells were adjusted to a cell density of 1×10⁶ cells/mL, respectively. The cells were seeded in a 96-well V-bottom plate (Corning, #3894) at 100 μL/well, and the antibody to be tested at 2×final concentration with 4-fold concentration gradient dilution was then added at 100 μL/well. The cells were incubated at 4° C. for 2 hours in the dark. After the incubation, the cells were rinsed twice by adding pre-chilled PBS containing 2% BSA at 100 μL/well, and centrifuged at 500 g at 4° C. for 5 minutes, and the supernatant was discarded. […] The cells were washed twice by adding pre-chilled PBS containing 2% BSA at 100 µL/well, and centrifuged at 500 g at 4° C. for 5 minutes, and the supernatant was discarded. Finally, the cells were resuspended in pre-chilled PBS buffer containing 2% BSA at 200 μL/well. The fluorescence signal values were read using a BD FACS CANTOII flow cytometer or ACEA NovoCyte flow cytometer, and the data were processed and analyzed using FlowJo v10 software (FlowJo, LLC).

T2 sequence (Q9NZQ7 19-290): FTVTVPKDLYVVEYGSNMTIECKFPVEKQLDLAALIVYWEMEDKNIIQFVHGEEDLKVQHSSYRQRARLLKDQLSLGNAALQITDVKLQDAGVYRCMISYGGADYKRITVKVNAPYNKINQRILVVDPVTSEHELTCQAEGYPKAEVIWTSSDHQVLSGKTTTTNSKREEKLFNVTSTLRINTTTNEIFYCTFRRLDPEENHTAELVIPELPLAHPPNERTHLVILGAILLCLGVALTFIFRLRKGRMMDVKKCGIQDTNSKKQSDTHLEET

EC50 [nM]	Maximum MFI [MFI]	Binder
1.18	19700	B1
1.01	20200	B2
0.96	19600	B3
1.15	20300	B4
1.15	20500	B5
1.07	20300	B6
1.14	20700	B7
1.04	20100	B8

target: T1, human CD40; test: cell-based or functional assay

EC50, HEK293-hCD40-NFκB reporter, + CHO-K1 [nM]	EC50, HEK293-hCD40-NFκB reporter, + CHO-K1/hPD-L1 [nM]	Maximum (RLU), HEK293-hCD40-NFκB reporter, + CHO-K1 [RLU]	Maximum (RLU), HEK293-hCD40-NFκB reporter, + CHO-K1/hPD-L1 [RLU]	Binder
0.22	0.08	239000	379000	B1
0.144	0.0106	24500	31400	B3
0.136	0.0138	26900	31700	B5
0.425	0.0362	4000	4900	B7

target: T2, human PD-L1; test: cell-based or functional assay

EC50, Jurkat-NFAT-hPD1 reporter [nM]	Maximum (RLU), Jurkat-NFAT-hPD1 reporter [RLU]	Binder
0.273	4060	B1
0.157	2190	B2
0.359	4920	B3
0.319	3740	B4
0.175	2830	B5
0.204	2590	B6
0.35	4640	B7
0.12	2470	B8

target: T3, cynomolgus monkey PD-L1 (cynomolgus monkey); test: FACS, CHO-K1/cyPD-L1 cells
T3 construct: whole, on cells; also called cyPD-L1
Description: as §2

EC50 [nM]	Maximum MFI [MFI]	Binder
0.656	4570	B1
0.635	4830	B2
0.622	4540	B3
0.757	4840	B4
0.779	4870	B5
0.687	4750	B6
0.754	4930	B7
0.69	4870	B8

target: T4, cynomolgus monkey CD40 (cynomolgus monkey); test: FACS, CHO-K1/cyCD40 cells
T4 construct: whole, on cells; also called cyCD40
Description: as §1

EC50 [nM]	Maximum MFI [MFI]	Binder
2.62	57000	B1
2.45	58700	B2
3.37	76200	B3
2.48	68000	B4
15.6	93200	B5
2.22	64700	B6
3.76	75400	B7
3.07	67900	B8

target: T2, human PD-L1; test: FACS, NCI-H226 cells
Description: as §2

EC50 [nM]	Maximum MFI [MFI]	Binder
0.569	927	B1
0.337	831	B2
0.389	870	B3
0.281	1030	B4
0.313	862	B5
0.303	800	B6
0.215	928	B7
0.322	902	B8

target: T1, human CD40; test: FACS, Raji cells
Description: as §1

EC50 [nM]	Maximum MFI [MFI]	Binder
1.45	7570	B1
1.27	6850	B2
1.24	7360	B3
1.32	6710	B4
1.36	6670	B5
1.24	6680	B6
1.3	6610	B7
1.23	6700	B8
